Results taken from IntAct's records for PubMed 29892012.

B1: Coiled-coil alpha-helical rod protein 1 (Homo sapiens), Q8TD31 (parent)
chain: MFPPSGSTGLIPPSHFQARPLSTLPRMAPTWLSDIPLVQPPGHQDVSERRLDTQRPQVTMWERDVSSDRQEPGRRGRSWGLEGSQALSQQAEVIVRQLQELRRLEEEVRLLRETSLQQKMRLEAQAMELEALARAEKAGRAEAEGLRAALAGAEVVRKNLEEGSQRELEEVQRLHQEQLSSLTQAHEEALSSLTSKAEGLEKSLSSLETRRAGEAKELAEAQREAELLRKQLSKTQEDLEAQVTLVENLRKYVGEQVPSEVHSQTWELERQKLLETMQHLQEDRDSLHATAELLQVRVQSLTHILALQEEELTRKVQPSDSLEPEFTRKCQSLLNRWREKVFALMVQLKAQELEHSDSVKQLKGQVASLQEKVTSQSQEQAILQRSLQDKAAEVEVERMGAKGLQLELSRAQEARRRWQQQTASAEEQLRLVVNAVSSSQIWLETTMAKVEGAAAQLPSLNNRLSYAVRKVHTIRGLIARKLALAQLRQESCPLPPPVTDVSLELQQLREERNRLDAELQLSARLIQQEVGRAREQGEAERQQLSKVAQQLEQELQQTQESLASLGLQLEVARQGQQESTEEAASLRQELTQQQELYGQALQEKVAEVETRLREQLSDTERRLNEARREHAKAVVSLRQIQRRAAQEKERSQELRRLQEEARKEEGQRLARRLQELERDKNLMLATLQQEGLLSRYKQQRLLTVLPSLLDKKKSVVSSPRPPECSASAPVAAAVPTRESIKGSLSVLLDDLQDLSEAISKEEAVCQGDNLDRCSSSNPQMSS
partner: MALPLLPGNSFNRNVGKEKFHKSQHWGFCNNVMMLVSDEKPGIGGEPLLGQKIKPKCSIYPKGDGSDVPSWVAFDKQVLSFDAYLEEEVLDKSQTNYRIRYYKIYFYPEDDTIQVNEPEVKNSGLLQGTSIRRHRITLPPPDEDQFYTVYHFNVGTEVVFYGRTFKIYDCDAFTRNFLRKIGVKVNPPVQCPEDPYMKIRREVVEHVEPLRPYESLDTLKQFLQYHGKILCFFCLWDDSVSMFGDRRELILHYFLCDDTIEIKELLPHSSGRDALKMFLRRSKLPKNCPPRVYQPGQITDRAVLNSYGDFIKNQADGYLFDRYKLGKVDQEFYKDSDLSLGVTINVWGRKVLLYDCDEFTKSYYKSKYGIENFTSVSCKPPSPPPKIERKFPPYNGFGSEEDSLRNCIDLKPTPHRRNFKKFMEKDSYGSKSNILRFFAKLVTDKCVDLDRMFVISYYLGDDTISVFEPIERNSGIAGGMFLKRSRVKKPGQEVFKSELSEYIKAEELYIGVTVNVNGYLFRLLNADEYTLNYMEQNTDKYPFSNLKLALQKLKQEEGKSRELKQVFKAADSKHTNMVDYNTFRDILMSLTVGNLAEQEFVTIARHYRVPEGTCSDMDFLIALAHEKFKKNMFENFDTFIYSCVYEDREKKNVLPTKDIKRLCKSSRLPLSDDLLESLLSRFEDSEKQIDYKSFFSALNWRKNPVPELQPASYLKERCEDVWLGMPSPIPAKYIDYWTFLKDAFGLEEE
B2: Ribosome assembly protein METTL17, mitochondrial (Homo sapiens), Q9H7H0 (parent)
chain: MAAALKCLLTLGRWCPGLGVAPQARALAALVPGVTQVDNKSGFLQKRPHRQHPGILKLPHVRLPQALANGAQLLLLGSAGPTMENQVQTLTSYLWSRHLPVEPEELQRRARHLEKKFLENPDLSQTEEKLRGAVLHALRKTTYHWQELSYTEGLSLVYMAARLDGGFAAVSRAFHEIRARNPAFQPQTLMDFGSGTGSVTWAAHSIWGQSLREYMCVDRSAAMLVLAEKLLKGGSESGEPYIPGVFFRQFLPVSPKVQFDVVVSAFSLSELPSKADRTEVVQTLWRKTGHFLVLVENGTKAGHSLLMDARDLVLKGKEKSPLDPRPGFVFAPCPHELPCPQLTNLACSFSQAYHPIPFSWNKKPKEEKFSMVILARGSPEEAHRWPRITQPVLKRPRHVHCHLCCPDGHMQHAVLTARRHGRDLYRCARVSSWGDLLPVLTPSAFPPSTAQDPSES
partner: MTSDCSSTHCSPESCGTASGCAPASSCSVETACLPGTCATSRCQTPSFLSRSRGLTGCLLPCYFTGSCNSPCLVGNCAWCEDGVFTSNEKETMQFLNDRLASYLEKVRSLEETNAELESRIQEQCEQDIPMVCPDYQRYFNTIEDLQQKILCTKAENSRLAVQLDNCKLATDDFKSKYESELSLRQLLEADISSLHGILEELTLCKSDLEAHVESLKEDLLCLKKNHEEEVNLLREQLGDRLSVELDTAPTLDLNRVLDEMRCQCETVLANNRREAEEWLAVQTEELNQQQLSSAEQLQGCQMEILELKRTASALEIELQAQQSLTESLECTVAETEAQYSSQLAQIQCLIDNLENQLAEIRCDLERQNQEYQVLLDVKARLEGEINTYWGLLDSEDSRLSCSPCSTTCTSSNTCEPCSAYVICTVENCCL
B3: Atos homolog protein B (Homo sapiens), Q7L5A3 (parent)
chain: MRHVQAEPSPSSEPEAGPSQPPVRQGALQGGLLMGYSPAGGATSPGVYQVSIFSPPAGTSEPHRALKRQAPSTEGPRELKRGPGLGAREGLPPEEPSTVGLLGPEGPGLGLGVASQHFSHRGLCVVEQRSSVTSSWTSGAWSPPCPPSNASCNTLHTRDWASPDPGGQGSLGESPGPAPPGQLHTLDTDLHSLAQIGGKSPVAGVGNGGSLWPRESPGTANGHSPEHTPPGPGPPGPCPTKRRLLPAGEAPDVSSEEEGPAPRRRRGSLGHPTAANSSDAKATPFWSHLLPGPKEPVLDPTDCGPMGRRLKGARRLKLSPLRSLRKGPGLLSPPSASPVPTPAVSRTLLGNFEESLLRGRFAPSGHIEGFTAEIGASGSYCPQHVTLPVTVTFFDVSEQNAPAPFLGIVDLNPLGRKGYSVPKVGTVQVTLFNPNQTVVKMFLVTFDFSDMPAAHMTFLRHRLFLVPVGEEGNANPTHRLLCYLLHLRFRSSRSGRLSLHGDIRLLFSRRSLELDTGLPYELQAVTEAPHNPRYSPLP
partner: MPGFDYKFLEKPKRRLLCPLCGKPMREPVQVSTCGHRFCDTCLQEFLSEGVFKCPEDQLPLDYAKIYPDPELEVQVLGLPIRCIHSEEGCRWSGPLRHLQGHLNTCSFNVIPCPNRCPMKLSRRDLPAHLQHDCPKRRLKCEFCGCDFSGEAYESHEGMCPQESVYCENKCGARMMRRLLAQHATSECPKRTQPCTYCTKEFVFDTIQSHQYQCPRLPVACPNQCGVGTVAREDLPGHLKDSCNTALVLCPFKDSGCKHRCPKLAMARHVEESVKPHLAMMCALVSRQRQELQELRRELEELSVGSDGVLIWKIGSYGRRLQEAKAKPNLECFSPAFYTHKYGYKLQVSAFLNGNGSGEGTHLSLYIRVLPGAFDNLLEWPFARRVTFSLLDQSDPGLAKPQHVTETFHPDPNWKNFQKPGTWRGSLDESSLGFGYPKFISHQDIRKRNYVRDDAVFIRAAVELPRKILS
B4: Inactive peptidyl-prolyl cis-trans isomerase FKBP6 (Homo sapiens), O75344 (parent)
chain: MGGSALNQGVLEGDDAPGQSLYERLSQRMLDISGDRGVLKDVIREGAGDLVAPDASVLVKYSGYLEHMDRPFDSNYFRKTPRLMKLGEDITLWGMELGLLSMRRGELARFLFKPNYAYGTLGCPPLIPPNTTVLFEIELLDFLDCAESDKFCALSAEQQDQFPLQKVLKVAATEREFGNYLFRQNRFYDAKVRYKRALLLLRRRSAPPEEQHLVEAAKLPVLLNLSFTYLKLDRPTIALCYGEQALIIDQKNAKALFRCGQACLLLTEYQKARDFLVRAQKEQPFNHDINNELKKLASCYRDYVDKEKEMWHRMFAPCGDGSTAGES
partner: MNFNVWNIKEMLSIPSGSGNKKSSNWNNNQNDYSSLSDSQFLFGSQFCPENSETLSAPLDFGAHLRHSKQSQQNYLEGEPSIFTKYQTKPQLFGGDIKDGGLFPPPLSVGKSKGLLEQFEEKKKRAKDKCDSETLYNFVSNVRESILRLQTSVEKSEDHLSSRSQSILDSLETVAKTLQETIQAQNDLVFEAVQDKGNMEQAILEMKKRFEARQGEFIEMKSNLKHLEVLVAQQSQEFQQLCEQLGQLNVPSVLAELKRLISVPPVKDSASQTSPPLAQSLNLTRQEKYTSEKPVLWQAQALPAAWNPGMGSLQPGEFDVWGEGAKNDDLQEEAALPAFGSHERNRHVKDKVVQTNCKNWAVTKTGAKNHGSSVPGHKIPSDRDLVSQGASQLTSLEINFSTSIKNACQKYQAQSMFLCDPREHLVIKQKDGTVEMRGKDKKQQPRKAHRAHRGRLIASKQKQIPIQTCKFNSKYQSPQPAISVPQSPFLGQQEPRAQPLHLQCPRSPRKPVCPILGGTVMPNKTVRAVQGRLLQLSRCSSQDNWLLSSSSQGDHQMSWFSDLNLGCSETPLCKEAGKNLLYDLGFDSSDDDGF
B5: Glutaredoxin-3 (Homo sapiens), O76003 (parent)
chain: MAAGAAEAAVAAVEEVGSAGQFEELLRLKAKSLLVVHFWAPWAPQCAQMNEVMAELAKELPQVSFVKLEAEGVPEVSEKYEISSVPTFLFFKNSQKIDRLDGAHAPELTKKVQRHASSGSFLPSANEHLKEDLNLRLKKLTHAAPCMLFMKGTPQEPRCGFSKQMVEILHKHNIQFSSFDIFSDEEVRQGLKAYSSWPTYPQLYVSGELIGGLDIIKELEASEELDTICPKAPKLEERLKVLTNKASVMLFMKGNKQEAKCGFSKQILEILNSTGVEYETFDILEDEEVRQGLKAYSNWPTYPQLYVKGELVGGLDIVKELKENGELLPILRGEN
partner: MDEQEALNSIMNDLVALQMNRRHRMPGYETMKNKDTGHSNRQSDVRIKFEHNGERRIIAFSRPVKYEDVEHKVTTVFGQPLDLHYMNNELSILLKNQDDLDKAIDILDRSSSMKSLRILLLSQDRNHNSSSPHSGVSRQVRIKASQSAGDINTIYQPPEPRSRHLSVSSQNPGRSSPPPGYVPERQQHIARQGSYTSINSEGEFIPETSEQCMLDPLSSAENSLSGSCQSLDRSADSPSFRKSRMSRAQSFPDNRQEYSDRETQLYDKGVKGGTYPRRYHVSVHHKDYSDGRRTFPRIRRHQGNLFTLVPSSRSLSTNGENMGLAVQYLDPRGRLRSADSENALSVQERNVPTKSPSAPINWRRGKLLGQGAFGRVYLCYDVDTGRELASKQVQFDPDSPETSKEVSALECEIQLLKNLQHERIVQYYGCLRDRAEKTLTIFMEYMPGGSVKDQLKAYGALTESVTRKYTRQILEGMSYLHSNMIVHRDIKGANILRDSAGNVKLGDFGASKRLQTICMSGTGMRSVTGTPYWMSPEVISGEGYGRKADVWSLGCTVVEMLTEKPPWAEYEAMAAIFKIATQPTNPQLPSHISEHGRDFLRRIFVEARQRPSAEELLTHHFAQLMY
B6: Cell division cycle-associated 7-like protein (Homo sapiens), Q96GN5 (parent)
chain: MELATRYQIPKEVADIFNAPSDDEEFVGFRDDVPMETLSSEESCDSFDSLESGKQQDVRFHSKYFTEELRRIFIEDTDSETEDFAGFTQSDLNGKTNPEVMVVESDLSDDGKASLVSEEEEDEEEDKATPRRSRSRRSSIGLRVAFQFPTKKLANKPDKNSSSEQLFSSARLQNEKKTILERKKDCRQVIQREDSTSESEDDSRDESQESSDALLKRTMNIKENKAMLAQLLAELNSMPDFFPVRTPTSASRKKTVRRAFSEGQITRRMNPTRSARPPEKFALENFTVSAAKFAEEFYSFRRRKTIGGKCREYRRRHRISSFRPVEDITEEDLENVAITVRDKIYDKVLGNTCHQCRQKTIDTKTVCRNQGCCGVRGQFCGPCLRNRYGEDVRSALLDPDWVCPPCRGICNCSYCRKRDGRCATGILIHLAKFYGYDNVKEYLESLQKELVEDN
partner: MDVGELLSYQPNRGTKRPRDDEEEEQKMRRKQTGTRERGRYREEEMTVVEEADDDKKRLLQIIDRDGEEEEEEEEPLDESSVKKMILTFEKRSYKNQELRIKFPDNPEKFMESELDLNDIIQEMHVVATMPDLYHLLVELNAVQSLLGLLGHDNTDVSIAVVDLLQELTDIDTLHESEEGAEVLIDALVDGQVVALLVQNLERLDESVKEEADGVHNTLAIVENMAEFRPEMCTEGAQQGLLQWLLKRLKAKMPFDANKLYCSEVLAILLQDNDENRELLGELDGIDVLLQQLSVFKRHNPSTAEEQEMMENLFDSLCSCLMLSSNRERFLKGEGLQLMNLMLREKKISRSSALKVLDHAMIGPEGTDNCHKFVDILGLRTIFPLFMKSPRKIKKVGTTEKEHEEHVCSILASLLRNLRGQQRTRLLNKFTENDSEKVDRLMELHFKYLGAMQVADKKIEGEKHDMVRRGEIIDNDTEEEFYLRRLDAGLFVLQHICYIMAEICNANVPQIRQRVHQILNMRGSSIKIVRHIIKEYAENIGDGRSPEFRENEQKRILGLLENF

Variants of: B1
Details: with efhc2_human EFHC2, Q5JST6
With W337R the “effect of a mutation on the interaction” value was “disrupting interaction strength”.

Variants of: B2
Details: with KRT40, Q6A162
For R212H, the “effect of a mutation on the interaction” value was “with no effect”.

Variants of: B3
Details: with traf4_human TRAF4, Q9BUZ4
For C381Y, the “effect of a mutation on the interaction” value was “disrupting interaction strength”.

Variants of: B4
Details: with iho1_human IHO1, Q8IYA8
With L246F the “effect of a mutation on the interaction” value was “disrupting interaction strength”.

Variants of: B5
Details: with m3k3_human MAP3K3, Q99759
P145A was tested, and the “effect of a mutation on the interaction” value was “with no effect”.

Variants of: B6
Details: with ctbl1_human CTNNBL1, Q8WYA6
For R268H, the “effect of a mutation on the interaction” value was “with no effect”.
